Experimental data published in article PMC12618757.

Target: EGFP-mPiezo1 (murine Piezo1 fused to EGFP) (murine) (UniProt E2JF22)
Sequence of UniProt E2JF22 (E2JF22 whole entry, the tested form may be a part): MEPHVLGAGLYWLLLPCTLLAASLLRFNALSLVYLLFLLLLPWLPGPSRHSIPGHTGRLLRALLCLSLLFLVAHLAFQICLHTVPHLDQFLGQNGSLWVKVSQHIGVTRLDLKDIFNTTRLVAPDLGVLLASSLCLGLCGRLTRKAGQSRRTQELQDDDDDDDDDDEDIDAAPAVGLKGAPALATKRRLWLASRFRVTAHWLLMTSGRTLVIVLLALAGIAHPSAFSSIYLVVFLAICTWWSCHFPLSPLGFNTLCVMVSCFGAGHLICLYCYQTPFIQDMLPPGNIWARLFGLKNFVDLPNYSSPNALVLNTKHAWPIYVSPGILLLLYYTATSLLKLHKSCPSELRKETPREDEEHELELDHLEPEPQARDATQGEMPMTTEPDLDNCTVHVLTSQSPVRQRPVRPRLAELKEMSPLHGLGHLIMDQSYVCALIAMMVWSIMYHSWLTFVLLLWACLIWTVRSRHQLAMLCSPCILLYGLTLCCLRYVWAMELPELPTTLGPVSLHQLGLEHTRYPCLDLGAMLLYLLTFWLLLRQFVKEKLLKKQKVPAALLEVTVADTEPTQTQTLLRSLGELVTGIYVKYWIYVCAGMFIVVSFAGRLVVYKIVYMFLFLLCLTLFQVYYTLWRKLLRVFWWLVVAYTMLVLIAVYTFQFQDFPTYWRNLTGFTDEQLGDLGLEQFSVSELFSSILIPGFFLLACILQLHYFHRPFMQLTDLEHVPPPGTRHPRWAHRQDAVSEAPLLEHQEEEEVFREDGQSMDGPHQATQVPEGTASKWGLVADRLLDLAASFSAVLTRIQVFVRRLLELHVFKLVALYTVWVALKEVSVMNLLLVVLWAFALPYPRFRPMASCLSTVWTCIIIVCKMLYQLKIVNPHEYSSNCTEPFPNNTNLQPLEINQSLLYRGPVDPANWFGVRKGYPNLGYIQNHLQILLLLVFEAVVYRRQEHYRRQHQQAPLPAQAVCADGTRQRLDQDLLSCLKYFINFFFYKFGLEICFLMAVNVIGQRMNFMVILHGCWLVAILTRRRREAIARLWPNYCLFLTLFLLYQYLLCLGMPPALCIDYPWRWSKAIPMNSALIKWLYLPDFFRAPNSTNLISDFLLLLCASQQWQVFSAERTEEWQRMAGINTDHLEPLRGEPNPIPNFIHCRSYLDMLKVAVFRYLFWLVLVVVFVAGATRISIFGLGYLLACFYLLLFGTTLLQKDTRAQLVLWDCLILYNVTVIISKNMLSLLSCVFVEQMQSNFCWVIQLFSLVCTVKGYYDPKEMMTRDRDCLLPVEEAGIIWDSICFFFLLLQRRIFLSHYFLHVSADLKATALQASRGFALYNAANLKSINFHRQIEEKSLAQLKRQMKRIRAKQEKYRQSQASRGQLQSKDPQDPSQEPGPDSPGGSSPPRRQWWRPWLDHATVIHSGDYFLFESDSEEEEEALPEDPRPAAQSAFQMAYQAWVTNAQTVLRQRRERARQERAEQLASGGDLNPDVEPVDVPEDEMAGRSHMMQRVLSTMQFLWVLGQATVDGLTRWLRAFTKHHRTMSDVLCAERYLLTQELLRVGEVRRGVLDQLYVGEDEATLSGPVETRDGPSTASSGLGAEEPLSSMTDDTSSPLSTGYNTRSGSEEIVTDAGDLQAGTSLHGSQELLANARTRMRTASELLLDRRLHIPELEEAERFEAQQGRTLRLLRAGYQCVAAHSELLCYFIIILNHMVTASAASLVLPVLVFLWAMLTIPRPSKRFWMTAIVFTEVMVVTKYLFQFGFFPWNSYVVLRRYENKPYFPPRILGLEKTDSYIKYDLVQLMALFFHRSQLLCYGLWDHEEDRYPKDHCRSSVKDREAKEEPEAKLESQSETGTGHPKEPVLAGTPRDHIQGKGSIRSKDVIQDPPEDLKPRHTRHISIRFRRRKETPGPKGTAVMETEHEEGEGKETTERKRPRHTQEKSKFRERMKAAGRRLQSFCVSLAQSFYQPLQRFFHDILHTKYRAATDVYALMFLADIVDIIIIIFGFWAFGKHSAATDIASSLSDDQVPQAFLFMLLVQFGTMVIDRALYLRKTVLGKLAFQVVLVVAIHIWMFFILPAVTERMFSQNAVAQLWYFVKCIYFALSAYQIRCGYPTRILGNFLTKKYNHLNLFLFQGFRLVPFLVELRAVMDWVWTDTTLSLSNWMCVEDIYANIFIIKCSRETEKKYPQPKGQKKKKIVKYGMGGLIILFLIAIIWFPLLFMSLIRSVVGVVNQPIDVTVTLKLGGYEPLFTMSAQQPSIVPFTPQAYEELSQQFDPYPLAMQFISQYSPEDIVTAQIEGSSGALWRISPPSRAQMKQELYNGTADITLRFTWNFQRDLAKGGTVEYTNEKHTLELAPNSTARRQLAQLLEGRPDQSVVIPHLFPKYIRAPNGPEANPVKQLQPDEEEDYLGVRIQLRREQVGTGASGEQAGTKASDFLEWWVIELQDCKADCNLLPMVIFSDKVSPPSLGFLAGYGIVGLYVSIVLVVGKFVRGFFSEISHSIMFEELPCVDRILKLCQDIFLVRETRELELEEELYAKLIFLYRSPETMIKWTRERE

LecB-S22A mutant (natural protein)
average stretch-induced current at −80 mmHg, EGFP-mPiezo1-overexpressing H1299 cells, LecB-S22A for 3 h (not significantly changed compared to untreated control cells): -36.5 pA
